Reference: US11286293
Where “and” joins values, the source holds several entries; their conditions need not be identical. Equal values may be shown once. Read-outs that look alike come from different tables or passages of the source.

Columns and labels:
Assay in all cases: SPR
[1] = molecular target: T1, Tissue factor (TF) extracellular domain (human, UniProt P13726)
T1 chain: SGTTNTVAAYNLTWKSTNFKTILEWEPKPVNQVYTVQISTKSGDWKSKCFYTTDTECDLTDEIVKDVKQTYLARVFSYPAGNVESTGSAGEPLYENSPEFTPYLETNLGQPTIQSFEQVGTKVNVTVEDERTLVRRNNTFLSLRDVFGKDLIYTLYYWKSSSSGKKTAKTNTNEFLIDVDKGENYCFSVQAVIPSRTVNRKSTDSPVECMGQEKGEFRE

[2] = molecular target: T1, Tissue factor (TF) extracellular domain
[3] = molecular target: T1, Tissue factor (TF) extracellular domain
[4] = molecular target: T1, Tissue factor (TF) extracellular domain

Kd [1]: 0.0522 nM and 0.0622 nM | Kd [2]: 0.06 nM | Kd [3]: 0.056 nM | Kd [4]: 0.052 nM
B1: D3H44 WT Fab (antibody)
chain 1: EVQLVESGGGLVQPGGSLRLSCAASGFNIKEYYMHWVRQAPGKGLEWVGLIDPEQGNTIYDPKFQDRATISADNSKNTAYLQMNSLRAEDTAVYYCAR
chain 2: DIQMTQSPSSLSASVGDRVTITCRASRDIKSYLNWYQQKPGKAPKVLIYYATSLAEGVPSRFSGSGSGTDYTLTISSLQPEDFATYYCLQHG
